Test results taken from patent US20230340152A1 (published 2023).

Target: T1, HDX_E1+E2 CD73 chimera (human; chicken, UniProt P21589 27-553)
T1 chain: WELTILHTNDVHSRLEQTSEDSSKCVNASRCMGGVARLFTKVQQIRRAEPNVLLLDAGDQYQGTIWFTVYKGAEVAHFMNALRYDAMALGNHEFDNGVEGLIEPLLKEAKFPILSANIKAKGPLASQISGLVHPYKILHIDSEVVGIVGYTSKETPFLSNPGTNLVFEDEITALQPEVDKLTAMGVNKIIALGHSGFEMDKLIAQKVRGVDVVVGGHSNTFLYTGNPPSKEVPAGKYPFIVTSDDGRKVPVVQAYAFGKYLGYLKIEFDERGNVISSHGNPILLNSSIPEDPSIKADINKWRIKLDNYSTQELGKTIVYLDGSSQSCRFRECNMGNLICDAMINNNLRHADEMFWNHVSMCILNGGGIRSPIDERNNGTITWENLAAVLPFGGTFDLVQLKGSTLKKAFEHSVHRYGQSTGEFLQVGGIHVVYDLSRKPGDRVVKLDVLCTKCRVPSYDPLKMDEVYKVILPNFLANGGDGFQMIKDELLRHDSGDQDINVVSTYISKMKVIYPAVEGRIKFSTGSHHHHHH
Experiment: SPR (ProteOn), CD73 variant immobilized; 2:1 fit
Procedure: Binding of MEDI9447 to wild-type and mutant CD73 proteins was measured by surface plasmon resonance (SPR) using a ProteOn instrument (BioRad). CD73 crude cell supernatant protein samples were diluted to 3 µg/ml in PBS, 0.005% Tween-20, pH 7.4 (BioRad) and immobilized to ~400 RU on a HTG tris-NTA sensor chip (BioRad) pre-activated with 10 mM NiSO₄, 10 mM MES, pH 6.0 (BioRad). An equivalently diluted crude cell supernatant sample from non-transfected cells was included as a reference channel control. Sensorgrams were recorded by flowing two-fold dilutions of MEDI9447 prepared in PBS, 0.005% Tween-20, pH 7.4, ranging from 5 nM to 0.31 nM. […] Antibody binding was measured at a flow rate of 100 µL/min with a 3 min association phase and 20 min dissociation phase. The sensor chip surface was regenerated between each run by an 800 s injection of 300 mM EDTA, pH 8.5 (BioRad) at a flow rate of 30 µL/min. Binding kinetics were analyzed using the ProteOn data analysis software. Double referencing was performed and, unless noted otherwise, a 1:1 Langmuir binding model was utilized to fit the data. Some CD73 variants containing mutations within the amino acid region 171-188 fit poorly to a 1:1 model (i.e., Chi² values >10% of Rmax). Where noted, these variants were fit with a heterogenous antigen (2:1) model. […] Due to the assay format (antigen immobilized) and the dimeric state of CD73, KD values may be exaggerated due to avidity effects. However, it is not anticipated that this impacts ranking of MEDI9447 binding to the different CD73 variants.

B1: MEDI9447 (antibody, human IgG1, lambda, V domains shown)
VH: EVQLLESGGGLVQPGGSLRLSCAASGFTFSSYAYSWVRQAPGKGLEWVSAISGSGGRTYYADSVKGRFTISRDNSKNTLYLQMNSLRAEDTAVYYCARLGYGRVDEWGRGTLVTVSS
VL: QSVLTQPPSASGTPGQRVTISCSGSLSNIGRNPVNWYQQLPGTAPKLLIYLDNLRLSGVPDRFSGSKSGTSASLAISGLQSEDEADYYCATWDDSHPGWTFGGGTKLTVLG
notes: Human IgG1-TM (L234F, L235E, P331S), lambda light chain; also called clone 10.3 antibody; 73combo3
  Kd: 4.43 nM
  koff: 0.0211 s⁻¹
  kon: 4.76e+06 M⁻¹ s⁻¹
